This is an account of results in patent US20220380463A1 (Adimab, published 2022).

Test [1] deals with T1, Cynomolgus CD3εδ Fc heterodimer (Cy CD3ε Fc / CD3δ Fc-HIS) (cynomolgus, UniProt Q95LI8 22-100).
T1 chain 1: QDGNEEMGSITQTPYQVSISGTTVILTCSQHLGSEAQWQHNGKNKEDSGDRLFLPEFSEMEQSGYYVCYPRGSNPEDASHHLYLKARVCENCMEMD
T1 chain 2: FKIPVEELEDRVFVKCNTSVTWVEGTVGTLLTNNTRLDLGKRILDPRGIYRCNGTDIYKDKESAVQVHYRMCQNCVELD
Briefly: BLI (Octet), IgG on AHC sensor, pH 6.0. Background: Biolayer interferometry detects binding as a change in optical thickness at a sensor tip.

Test [2] concerns the target T1, Cynomolgus CD3εδ Fc heterodimer (Cy …). Briefly: BLI (Octet), IgG on AHC sensor, pH 7.4.

B1: SAD10319_P04_B10 (ADI-57332) (antibody, V domains shown)
VH: QVQLVQSGAEVKKPGASVKVSCKASGYTFTSTFMHWVRQAPGQRLEWMGFIDAGTGATKYSQKFQGRVTITRDTSASTAYMELSSLRSEDTAVYYCARDAYGHYFYDHWGQGTLVTVSS
VL: DIVMTQSPDSLAVSLGERATINCKSSQSLLNARTGKNYLAWYQQKPGQPPKLLIYWASTRESGVPDRFSGSGSGTDFTLTISSLQAEDVAVYYCKQSYSRRTFGGGTKVEIK
notes: IgG; also called Ab30
For B1, the koff (commonly a measure of how fast the partners let go of each other) in test [1] worked out at 0.0127 s⁻¹. In addition, in test [2], binding was characterised by a dissociation constant (Kd) of 58.8 nM, the koff worked out at 0.0199 s⁻¹ and the kon (usually a measure of how fast the partners come together) stood at 338000 M⁻¹ s⁻¹.

B2: LAD9953_P01_H01 (ADI-57437) (antibody, V domains shown)
VH: QVQLVQSGAEVKKPGASVKVSCKASGFNIKDYYMHWVRQAPGQRLEWMGWIDLENANTIYDAKFQGRVTITRDTSASTAYMELSSLRSEDTAVYYCARDAYGRYFYDVWGQGTLVTVSS
VL: DIVMTQSPDSLAVSLGERATINCKSSQSLLHARTHKNYLAWYQQKPGQPPKLLIYWASTRESGVPDRFSGSGSGTDFTLTISSLQAEDVAVYYCKQSYSRRTFGGGTKVEIK
notes: IgG; also called Ab167
B2 yielded a koff in test [1] of 0.0176 s⁻¹. Also, in test [2], the affinity, expressed as Kd, was 86.7 nM; the koff was 0.0209 s⁻¹; the kon was 242000 M⁻¹ s⁻¹.

B3: LAD9954_P01_B02 (ADI-57438) (antibody, V domains shown)
VH: QVQLVQSGAEVKKPGASVKVSCKASGFNIKDYYMHWVRQAPGQRLEWMGWIDLENANTIYDAKFQGRVTITRDTSASTAYMELSSLRSEDTAVYYCARDAYGRYFYDVWGQGTLVTVSS
VL: DIVMTQSPDSLAVSLGERATINCKSSQSLLHARTGHNYLAWYQQKPGQPPKLLIYWASTRESGVPDRFSGSGSGTDFTLTISSLQAEDVAVYYCKQSYSRRTFGGGTKVEIK
notes: IgG; also called Ab168
For B3, in test [1], the koff was determined as 0.0303 s⁻¹. Further, in test [2], the Kd (in general, the concentration at which binding is half-saturated) was found to be 33.9 nM; the koff came out at 0.0107 s⁻¹; the kon amounted to 316000 M⁻¹ s⁻¹.

B4: SAD10319_P04_G10 (ADI-57334) (antibody, V domains shown)
VH: QVQLVQSGAEVKKPGASVKVSCKASGYTFTDYYMHWVRQAPGQRLEWMGWINPATGATAYSQKFQGRVTITRDTSASTAYMELSSLRSEDTAVYYCARDAYGHHFYDVWGQGTLVTVSS
VL: DIVMTQSPDSLAVSLGERATINCKSSQSLLNARTGKNYLAWYQQKPGQPPKLLIYWASTRESGVPDRFSGSGSGTDFTLTISSLQAEDVAVYYCKQSYSRRTFGGGTKVEIK
notes: IgG; also called Ab32
The molecule B4 displayed a koff in test [1] of 0.015 s⁻¹. In test [2], the affinity, expressed as Kd, was 62.6 nM; the off-rate constant (koff) was determined as 0.0182 s⁻¹; the kon came to 291000 M⁻¹ s⁻¹.

B5: SAD10320_P01_A03 (ADI-57353) (antibody, V domains shown)
VH: QVQLVQSGAEVKKPGASVKVSCKASGFNIKDYYMHWVRQAPGQRLEWMGWIDLENANTIYDAKFQGRVTITRDTSASTAYMELSSLRSEDTAVYYCARDHRGRYFYDVWGQGTLVTVSS
VL: DIVMTQSPDSLAVSLGERATINCKSSQSLLNARTGKNYLAWYQQKPGQPPKLLIYWASTRESGVPDRFSGSGSGTDFTLTISSLQAEDVAVYYCKQSSHRRTFGGGTKVEIK
notes: IgG; also called Ab60
B5 had a koff in test [1] of 0.0271 s⁻¹. Further, in test [2], binding was put at a Kd of 78.4 nM, the koff was determined as 0.0174 s⁻¹ and the kon was found to be 222000 M⁻¹ s⁻¹.

B6: SAD10320_P01_B03 (ADI-57354) (antibody, V domains shown)
VH: QVQLVQSGAEVKKPGASVKVSCKASGFNIKDYYMHWVRQAPGQRLEWMGWIDLENANTIYDAKFQGRVTITRDTSASTAYMELSSLRSDDTAVYYCARDQHGRYFYDVWGQGTLVTVSS
VL: DIVMTQSPDSLAVSLGERATINCKSSQSLLNARTGKNYLAWYQQKPGQPPKLLIYWASTRESGVPDRFSGSGSGTDFTLTISSLQAEDVAVYYCKQSYSRRTFGGGTKVEIK
notes: IgG; also called Ab61
As for B6, the koff in test [1] was 0.0204 s⁻¹. In test [2], this molecule showed a Kd of 75.1 nM, a koff of 0.0159 s⁻¹ and an on-rate (kon) of 212000 M⁻¹ s⁻¹.

B7: LAD9955_P01_G02 (ADI-57439) (antibody, V domains shown)
VH: QVQLVQSGAEVKKPGASVKVSCKASGFNIKDYYMHWVRQAPGQRLEWMGWIDLENANTIYDAKFQGRVTITRDTSASTAYMELSSLRSEDTAVYYCARDAYGRYFYDVWGQGTLVTVSS
VL: DIVMTQSPDSLAVSLGERATINCKSSQSLLHARTGKNHLAWYQQKPGQPPKLLIYWASTRESGVPDRFSGSGSGTDFTLTISSLQAEDVAVYYCKQSYSRRTFGGGTKVEIK
notes: IgG; also called Ab170
Molecule B7 yielded a koff in test [1] of 0.0282 s⁻¹. Moreover, in test [2], the Kd amounted to 127 nM, the koff came to 0.0187 s⁻¹ and the kon was 147000 M⁻¹ s⁻¹.

B8: SAD10320_P02_F06 (ADI-57370) (antibody, V domains shown)
VH: QVQLVQSGAEVKKPGASVKVSCKASGFNIKDYYMHWVRQAPGQRLAWMGWIDLENANTIYDAKFQGRVTITRDTSASTAYMELSSLRSEDTAVYYCARDAYGRFHYDVWGQGTLVTVSS
VL: DIVMTQSPDSLAVSLGERATINCKSSQSLLNARPGKNYLAWYQQKPGQPPKLLIYWASTRESGVPDRFSGSGSGTDFTLTISSLQAEDVAVYYCKQSYSRRTFGGGTKVEIK
notes: IgG; also called Ab87
In test [1], B8 returned a koff of 0.017 s⁻¹. In test [2], this molecule gave a Kd of 141 nM, a koff of 0.0166 s⁻¹ and a kon of 118000 M⁻¹ s⁻¹.

B9: LAD9959_P01_E04 (ADI-57441) (antibody, V domains shown)
VH: QVQLVQSGAEVKKPGASVKVSCKASGFNIKDYYMHWVRQAPGQRLEWMGWIDLENANTIYDAKFQGRVTITRDTSASTAYMELSSLRSEDTAVYYCARDAYGRYFYDVWGQGTLVTVSS
VL: DIVMTQSPDSLAVSLGERATINCKSSQSLLNARTHHNYLAWYQQKPGQPPKLLIYWASTRESGVPDRFSGSGSGTDFTLTISSLQAEDVAVYYCKQSYSRRTFGGGTKVEIK
notes: IgG; also called Ab172
For B9, the koff in test [1] is 0.00174 s⁻¹. In test [2], this molecule displayed a Kd of 89.6 nM, a koff of 0.0189 s⁻¹ and a kon of 210000 M⁻¹ s⁻¹.

B10: SAD10320_P01_E02 (ADI-57349) (antibody, V domains shown)
VH: QVQLVQSGAEVKKPGASVKVSCKASGFNIKDYYMHWVRQAPGQRLAWMGWIDLENANTIYDAKFQGRVTITRDTSASTAYMELSSLRSEDTAVYYCARDAYGRHFYDVWGQGTLVTVSS
VL: DIVMTQSPDSLAVSLGERATINCKSSQSLLNARTGKNYLAWYQQKPGQPPKLLIYWASTRESGVPDRFSGSGSGTDFTLTISSLQAEDVAVYYCKQSYSRRTFGGGTKVEIK
notes: IgG; also called Ab55
Take B10: the koff in test [1] is 0.00585 s⁻¹. In test [2], this molecule had a Kd of 68.6 nM, a koff of 0.0208 s⁻¹ and an on-rate constant (kon) of 304000 M⁻¹ s⁻¹.

B11: LAD9964_P01_C07 (ADI-57444) (antibody, V domains shown)
VH: QVQLVQSGAEVKKPGASVKVSCKASGFNIKDYYMHWVRQAPGQRLEWMGWIDLENANTIYDAKFQGRVTITRDTSASTAYMELSSLRSEDTAVYYCARDAYGRYFYDVWGQGTLVTVSS
VL: DIVMTQSPDSLAVSLGERATINCKSSQSLLNARTHKNYLAWYQQKPGQPPKLLIYWASTRESGVPDRFSGSGSGTDFTLTISSLQAEDVAVYYCKQSYSRRTFGGGTKVEIK
As for B11, in test [1], the koff was determined as 0.000637 s⁻¹. In test [2], this molecule registered a Kd of 4.71 nM, a koff of 0.00146 s⁻¹ and a kon of 310000 M⁻¹ s⁻¹.

B12: SAD10320_P02_G06 (ADI-57371) (antibody, V domains shown)
VH: QVQLVQSGAEVKKPGASVKVSCKASGFNIKDYYMHWVRQAPGQRLDWMGWIDLENANTIYDAKFQGRVTITRDTSASTAYMELSSLRSEDTAVYYCARDAYGRHFYDVWGQGTLVTVSS
VL: DIVMTQSPDSLAVSLGERATINCKSSQSLLNARTRTNYLAWYQQKPGQPPKLLIYWASTRESGVPDRFSGSGSGTDFTLTISSLQAEDVAVYYCKQSYSRRTFGGGTKVEIK
notes: IgG; also called Ab88
Consider B12, for which the koff in test [1] came to 0.00387 s⁻¹. In addition, in test [2], the Kd stood at 64.8 nM, the koff was 0.0219 s⁻¹ and the kon came to 338000 M⁻¹ s⁻¹.
